# Test results published in the RNAGym collection of RNA variant scans (doi:10.1073/pnas.2313332121).
# B1: TPR t1 (parent)
# chain: GACCAAUCUGCCCUCAGAGCUCGAGAACAUCUUCGGAUGCAGAGGAGGCAGGCUUCGGUGGCGCGAUAGCGCCAACGUCCUCAACCUCCAAUGCAUCCCACCACAUGAUGAUGCCUGAAGAGCCUUGGUUUUUUG
# Variants of: B1
# Test: polymerase ribozyme fitness, log enrichment relative to wild type (log ratio); higher = more active; in vitro selection for triplet polymerase activity
# In short: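 Streptavidin-bead capture of gel-excised extended constructs, followed by RT-PCR, closed a single triplicate in vitro selection round. That round began by annealing PCR-built, transcribed mutant libraries of each subunit of a heterodimeric triplet polymerase ribozyme with a biotinylated primer, the partner subunit and triplets, then incubating them frozen at −7 °C. After Illumina sequencing of inputs and outputs, genotypes needed ≥10 input reads and ≥1 read per output. Fitness is the base-2 logarithm of genotype enrichment over wild-type enrichment, using inverse-variance-weighted replicate averages.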
row,Variant,polymerase ribozyme fitness (log ratio)
1,C12G G107U,-5.64
2,C12U G36U A74C C94U A111G U116A,-2.62
3,C12U C40U G57A G63U C88G A90G,-5.54
4,C12U C80U C102U,-2.35
5,C12G G47A G113A C124U U129G U133A,-4.6
6,C12G G47C,-1.34
7,C12U C13G C49U C53U G127A,-3.32
8,C12U C13G A37U U54G C80A,-4.65
9,C12G G52U C53G G60U,-0.409
10,C12U A41G G48A C86U,-0.927
11,C12G C56U U78A A90C C114U,-2.46
12,C12U C13U C76A C114G,-3.72
13,C12U A29G G45U C56U C89A A91U G110A G127U,-5.23
14,C12U G42U C49G U96C,-2.37
15,C12U C22U A46U,-4.76
16,C12U C53U G71U G77A G120C,1.19
17,C12G C62U C89A C94U,-2
18,C12U A26U C28U C72U C123G,-5.39
19,C12U C124U,1.66
20,C12U C22U,-3.18
21,C12U C28U U78A A100C G113A,-3.61
22,C12U G39C A121C,0.709
23,C12U C34U G61A C104U U132A U133G,-3.5
24,C12U C40U C86U C94G U130A,-3.47

row,Variant,polymerase ribozyme fitness (log ratio)
1,C12U C53G G61C,0.0604
2,C12U C20A G71A U87C,-2.91
3,C12U G44A,-0.615
4,C12U G36A A66C U78C C82G A121U,-0.787
5,C12G C76A U116A,-3.37
6,C12U A74G U87A,-0.554
7,C12G C64U A75U U116G G122A C124G,0.593
8,C12G C64A G122A,-6.12
9,C12G G44U G47C G58C U116A,-5.59
10,C12U C20A,-1.94
11,C12U C82U,0.282
12,C12U A18G A41U G47C C72U U109G C124G,-3.69
13,C12G C98U,-0.616
14,C12U A26U G39C G110A,-5.25
15,C12U C15U A90G A100C,-1.2
16,C12U A74G A83C C114A C123G C124G,-1.02
17,C12U C56A G113A,-0.59
18,C12G U78G C102U,-1.99
19,C12G G47U C94G G128A,-4.93
20,C12U C28A C40U,-4.66
21,C12G C56G,-1.05
22,C12U A83C G122U,0.68
23,C12U A26U C34G A50U C79U A83C C85G G110A A111C,-7.36
24,C12G G110A,-0.401

row,Variant,polymerase ribozyme fitness (log ratio)
1,C12G G110U,-1.12
2,C12G G110C,-3.59
3,C12U C20U A43U C62U U96C U106A U129A,-6.14
4,C12U,0.39
5,C12G G48A,-0.668
6,C12G C62G C115U,-3.7
7,C12U G17U A50G U112A,0.845
8,C12U C34U,-3.06
9,C12U C62U,0.166
10,C12G G42A G57C C72U U125C,-4.98
11,C12U A84C G120U,1.69
12,C12U C34U C72A U81C C102U U109G,-5.97
13,C12G C70A A75U U112A G113U G120C U133G,-2.57
14,C12U C13G C82A G117A,-2.59
15,C12G G23A G71C C123G U129A,-7.78
16,C12G G44U U59G,-1.39
17,C12U C73U A95U A111U,-2.86
18,C12U G39A C85U,-1.02
19,C12G U14A C62A C86A C102A G120C U129A,-7.34
20,C12U C49U G63U,-1.49
21,C12U C49G C56U,-0.342
22,C12G C64U U133A,-0.644
23,C12G C64G C123G,-6.23
24,C12U C20G G63U U106C,-6.59

row,Variant,polymerase ribozyme fitness (log ratio)
1,C12U A27C A95U U125A,-3.79
2,C12G U78C A111U,-3.23
3,C12U C13U A74U C97A C123U C124A,-4.56
4,C12G C62G C72G U87A G113U U125G,-5.49
5,C12U A46C C53G U106A,-0.663
6,C12G C62G C99G C124A,-7.37
7,C12U G42A G128C U131G,-4.81
8,C12U G39U G61C C88G,-3.48
9,C12U C98A,-4.29
10,C12G G35A A37U G63C,-5.96
11,C12U A41U G71U A103U A118U,-6.98
12,C12U C15U C49A C73G C101U U133G,-1.62
13,C12G U132A,-0.729
14,C12G G36A C53A A74G C89U,-1.5
15,C12U G36C G45A,-0.823
16,C12G C72G,0.202
17,C12U C73A U96A C104U,-0.414
18,C12U C49A C62A C70A U78A,-4.12
19,C12U G44A C88U U92G U112A U116G G135A,-5.19
20,C12G G39U C53G,-0.932
21,C12U G39C U78A,0.181
22,C12U A41C C72G C86A U109A,-7.19
23,C12G U21C C101U A105U,-4.94
24,C12G U30C C70A,-4.46

row,Variant,polymerase ribozyme fitness (log ratio)
1,C12U G19A G71A C73U C123A,-1.42
2,C12G U21G A111U,-3.89
3,C12G G39A G44A C102U,-4.47
4,C12U C22A G39A C85A C102A,-7.04
5,C12U G23A,-3.55
6,C12G C73U C97A,-4.85
7,C12U A16G C28U A46C G120C,-1.6
8,C12G G120U G127U,1.47
9,C12U G36A C62G C73A,-6.24
10,C12U C62U G69A,-3.66
11,C12U C97A,-3.91
12,C12G U78C,-0.718
13,C12G G63A C115G G117U,-4.35
14,C12G G60U G61C C88A U112A A119G,-3.63
15,C12U C64U C72A U87C,-0.223
16,C12U A75U,0.0801
17,C12G C72G C86A U92A G110U,-4.84
18,C12U A41G G48A G57A C86U,-2.63
19,C12G G69U,0.711
20,C12U A26G C56U C72U G117A U125G,-2.09
21,C12U C40A C99U,-4.01
22,C12U G17C,-3.21
23,C12U C56A A91U A121C,-0.738
24,C12U C49A,0.257

row,Variant,polymerase ribozyme fitness (log ratio)
1,C12U C34U A84G C86A G113A,-6.74
2,C12G U96C,0.043
3,C12G G17C U87G C97A C123G,-6.84
4,C12G U55A C56G U81C,-1.29
5,C12U G42A C97U,-3.11
6,C12G G63C,-1.09
7,C12G G63A,-0.827
8,C12U A26U,-2.07
9,C12U A41U C72G,-1.1
10,C12U A43G C72U C123A,0.368
11,C12U A27U C40A U78G U109A C123U U130C,-3.99
12,C12G G71A,0.0302
13,C12U G39U C62A U78A,-1.41
14,C12G G45U,-0.996
15,C12G C76A A95U C115U,-4.26
16,C12U A37G A95G,-0.754
17,C12G C89U C97A G113C,-6.48
18,C12G U130C,0.663
19,C12U G39U C115A,-0.243
20,C12U C15A A37C G52U C72U U116G,-3.77
21,C12G C62U A105C,-2.46
22,C12U G36C A46U C72G U112C G127U,-1.47
23,C12G G48C A91C,-2.22
24,C12G C101G G110U,-5.05

row,Variant,polymerase ribozyme fitness (log ratio)
1,C12U A37C G45A G63U,-1.7
2,C12U C62G C85A C88U,-2.72
3,C12U A37U,0.327
4,C12U A37C,-0.693
5,C12G G19U C72A,-5.03
6,C12U C22U U33A C124G,-5.71
7,C12U C15U G61C C104U,-1.43
8,C12U A84C,0.463
9,C12G G35U C70U A74C C123G,-5.14
10,C12U C70A C88U U129C,-1.99
11,C12U C123G,2.68
12,C12U A37C G113A C123G,0.27
13,C12G G135U,-0.927
14,C12G G45A A84C U106G,-1.76
15,C12U A26U U32G A46C G48U A50G A74U C94G C114G,-7.12
16,C12U C70U G71U U112A C123G,0.00675
17,C12U G35U C89G C115U,-6.55
18,C12U G19C,-1.79
19,C12U A26G C64A C73U G110C,-5.13
20,C12G G117U,-1.22
21,C12G C64U C73U U131G,-0.0751
22,C12U C73U C97A G110U C115A C124G,-6.74
23,C12U C22G C72G C104A G113C A118G U129A,-6.33
